# Measured values taken from PMC6408466, “Inner lumen proteins stabilize doublet microtubules in cilia and flagella” (Nature Communications, 2019).
# T1: FAP45 (flagellar-associated protein 45) (Chlamydomonas (endogenous in wild type …, UniProt A8I9E8 1-501))
# T1 construct: FAP45 of Chlamydomonas, a coiled-coil protein of 501 amino acids, predicted ~59 kDa; endogenous protein in the axoneme; also called FAP45/CCDC19; MIP3c; source: endogenous, isolated wild type Chlamydomonas axonemes
# T1 sequence (looked up): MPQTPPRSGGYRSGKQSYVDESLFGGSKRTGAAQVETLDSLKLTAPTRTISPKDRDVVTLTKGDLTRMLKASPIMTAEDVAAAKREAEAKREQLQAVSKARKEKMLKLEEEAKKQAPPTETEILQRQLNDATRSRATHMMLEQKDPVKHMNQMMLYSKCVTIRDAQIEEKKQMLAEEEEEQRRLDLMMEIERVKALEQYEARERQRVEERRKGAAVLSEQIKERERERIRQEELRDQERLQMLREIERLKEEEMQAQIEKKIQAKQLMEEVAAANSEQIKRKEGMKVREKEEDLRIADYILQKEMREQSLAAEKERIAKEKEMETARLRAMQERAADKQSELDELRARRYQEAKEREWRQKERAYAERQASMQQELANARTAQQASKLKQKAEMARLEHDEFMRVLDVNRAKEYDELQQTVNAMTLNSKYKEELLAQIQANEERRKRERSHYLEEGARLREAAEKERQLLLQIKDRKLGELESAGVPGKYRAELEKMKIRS
# B1: FAP52 (flagellar-associated protein 52) (natural protein, UniProt A8ILK1 1-615, looked up)
# chain: MAEPLVLNSVIGFGGAIENGLIAHPDGRTIIYPLGSTIVLRDRADPRSQEFLQGHSDKVSCLALSRSGRYLASGQITYMGFTADIIIWDLESKQLIHRMALHKVKVQALDFSCDERFLASLGGQDDNALVLWDVASGNAICGSPCNTNFTNCVKFFNNSPDKLITAGNFNMNVWTYDAGNNKLRPTDATLGTLKRVFKSVVVDANDEYAYCGTTTGDVLQIALERVLFKNTGPAKGNVQMGVTATCEVPTGDILVGGGDGSLQLLRKMPALAGTKVEGAITSIALADMNARGFTFFVGTAMCNIYKPATSRLKEELVQTAHNDKINGMAFPNEYSEVFATCGTGFIRLWHLTTCRELLRIAVPNLECFCIAFTTDGSAILSGWSDGKIRAFGPQSGKIIFTINDAHQKAVTAIASTADSSRILSGGEEGMVRVWRIGRTSQTLEASMKDHKGPVNCIRIKGSGDECVSASSDGSCILWDLHTFKRRTSLFANTFFKSVVYHPDESQLVTAGTDRKVTYWDAYDGNAIRIIDGSDLDEVNALAVDRDGEALVSGGGDKLVKLWGYDEGHCYFVGVAHSGAITAVGVTPDKQRIVSVGTEGGIFIWDYQRPQTLADI
# notes: FAP52 of Chlamydomonas, ortholog of human WDR16, ~66 kDa, WD40 repeat protein; endogenous protein in the axoneme; also called FAP52/WDR16; MIP3a; source: endogenous, isolated wild type Chlamydomonas axonemes
# Molecular target: T1, FAP45 (flagellar-associated protein 45)
# Experiment: cross-linking; EDC-crosslinked wild type axonemes solubilized, crosslinked products immunoprecipitated with anti-FAP45 antibody, LC tandem MS of the precipitates
# Settings: partners not purified
binder,measurement,value
B1,stoichiometry N,1
